Results: article PMC10967792

Assays:
[1] = molecular target: hCCR7-mNeongreen (CCR7 C-terminally tagged with mNeonGreen) (human) (UniProt P32248)
[2] = molecular target: human CC chemokine receptor 7 (hCCR7), stably expressed (human) (UniProt P32248)

CC chemokine ligand 21 (CCL21) (from UniProt O00585 24-134)
pEC50 of β-arrestin1 (Arrβ1) recruitment to CCR7 (NanoBRET), CHO-K1 cells [1]: 7.52 -log10(M) | pEC50 of β-arrestin1 (Arrβ1) recruitment to CCR7 (NanoBRET), HEK293A cells [1]: 7.15 -log10(M) | pEC50 of β-arrestin1 (Arrβ1) recruitment to CCR7 (NanoBRET), U87 cells [1]: 6.9 -log10(M) | pEC50 of β-arrestin2 (Arrβ2) recruitment to CCR7 (NanoBRET), CHO-K1 cells [1]: 7.69 -log10(M) | pEC50 of β-arrestin2 (Arrβ2) recruitment to CCR7 (NanoBRET), HEK293A cells [1]: 7.02 -log10(M) | pEC50 of β-arrestin2 (Arrβ2) recruitment to CCR7 (NanoBRET), U87 cells [1]: 7.01 -log10(M) | pEC50 of Gα12 activation (NanoBRET, G protein dissociation), CHO-K1 cells expressing CCR7 [2]: 7.94 -log10(M) | pEC50 of Gα12 activation (NanoBRET, G protein dissociation), HEK293A cells expressing CCR7 [2]: 6.79 -log10(M) | pEC50 of Gα12 activation (NanoBRET, G protein dissociation), U87 cells expressing CCR7 [2]: 7.5 -log10(M) | pEC50 of Gα13 activation (NanoBRET, G protein dissociation), CHO-K1 cells expressing CCR7 [2]: 8.53 -log10(M) | pEC50 of Gα13 activation (NanoBRET, G protein dissociation), U87 cells expressing CCR7 [2]: 8.7 -log10(M) | pEC50 of Gα15 activation (NanoBRET, G protein dissociation), CHO-K1 cells expressing CCR7 [2]: 7.56 -log10(M) | pEC50 of Gα15 activation (NanoBRET, G protein dissociation), HEK293A cells expressing CCR7 [2]: 6.74 -log10(M) | pEC50 of Gαi1 activation (NanoBRET, G protein dissociation), CHO-K1 cells expressing CCR7 [2]: 8.37 -log10(M) | pEC50 of Gαi1 activation (NanoBRET, G protein dissociation), HEK293A cells expressing CCR7 [2]: 8.47 -log10(M) | pEC50 of Gαi1 activation (NanoBRET, G protein dissociation), U87 cells expressing CCR7 [2]: 8.02 -log10(M) | pEC50 of Gαi2 activation (NanoBRET, G protein dissociation), CHO-K1 cells expressing CCR7 [2]: 8.91 -log10(M) | pEC50 of Gαi2 activation (NanoBRET, G protein dissociation), HEK293A cells expressing CCR7 [2]: 8.76 -log10(M) | pEC50 of Gαi2 activation (NanoBRET, G protein dissociation), U87 cells expressing CCR7 [2]: 8.27 -log10(M) | pEC50 of Gαi3 activation (NanoBRET, G protein dissociation), CHO-K1 cells expressing CCR7 [2]: 8.84 -log10(M) | pEC50 of Gαi3 activation (NanoBRET, G protein dissociation), HEK293A cells expressing CCR7 [2]: 9.33 -log10(M) | pEC50 of Gαi3 activation (NanoBRET, G protein dissociation), U87 cells expressing CCR7 [2]: 8.6 -log10(M) | pEC50 of GαoA activation (NanoBRET, G protein dissociation), CHO-K1 cells expressing CCR7 [2]: 9.27 -log10(M) | pEC50 of GαoA activation (NanoBRET, G protein dissociation), HEK293A cells expressing CCR7 [2]: 7.97 -log10(M) | pEC50 of GαoA activation (NanoBRET, G protein dissociation), U87 cells expressing CCR7 [2]: 8.33 -log10(M) | pEC50 of GαoB activation (NanoBRET, G protein dissociation), CHO-K1 cells expressing CCR7 [2]: 8.97 -log10(M) | pEC50 of GαoB activation (NanoBRET, G protein dissociation), HEK293A cells expressing CCR7 [2]: 8.34 -log10(M) | pEC50 of GαoB activation (NanoBRET, G protein dissociation), U87 cells expressing CCR7 [2]: 8.45 -log10(M) | pEC50 of Gαq activation (NanoBRET, G protein dissociation), CHO-K1 cells expressing CCR7 [2]: 8.45 -log10(M) | pEC50 of Gαq activation (NanoBRET, G protein dissociation), U87 cells expressing CCR7 [2]: 8.1 -log10(M) | pEC50 of GαsL activation (NanoBRET, G protein dissociation), HEK293A cells expressing CCR7 [2]: 6.79 -log10(M) | pEC50 of GαsL activation (NanoBRET, G protein dissociation), U87 cells expressing CCR7 [2]: 8.99 -log10(M) | pEC50 of GαsS activation (NanoBRET, G protein dissociation), CHO-K1 cells expressing CCR7 [2]: 8.1 -log10(M) | pEC50 of GαsS activation (NanoBRET, G protein dissociation), U87 cells expressing CCR7 [2]: 8.39 -log10(M)

CC chemokine ligand 19 (CCL19) (from UniProt Q99731 22-98)
pEC50 of β-arrestin1 (Arrβ1) recruitment to CCR7 (NanoBRET), CHO-K1 cells [1]: 7.92 -log10(M) | pEC50 of β-arrestin1 (Arrβ1) recruitment to CCR7 (NanoBRET), HEK293A cells [1]: 7.46 -log10(M) | pEC50 of β-arrestin1 (Arrβ1) recruitment to CCR7 (NanoBRET), U87 cells [1]: 7.86 -log10(M) | pEC50 of β-arrestin2 (Arrβ2) recruitment to CCR7 (NanoBRET), CHO-K1 cells [1]: 8.11 -log10(M) | pEC50 of β-arrestin2 (Arrβ2) recruitment to CCR7 (NanoBRET), HEK293A cells [1]: 7.57 -log10(M) | pEC50 of β-arrestin2 (Arrβ2) recruitment to CCR7 (NanoBRET), U87 cells [1]: 7.86 -log10(M) | pEC50 of Gα12 activation (NanoBRET, G protein dissociation), HEK293A cells expressing CCR7 [2]: 7.44 -log10(M) | pEC50 of Gα12 activation (NanoBRET, G protein dissociation), U87 cells expressing CCR7 [2]: 7.81 -log10(M) | pEC50 of Gα13 activation (NanoBRET, G protein dissociation), CHO-K1 cells expressing CCR7 [2]: 8.87 -log10(M) | pEC50 of Gα13 activation (NanoBRET, G protein dissociation), U87 cells expressing CCR7 [2]: 8.77 -log10(M) | pEC50 of Gα15 activation (NanoBRET, G protein dissociation), CHO-K1 cells expressing CCR7 [2]: 8.91 -log10(M) | pEC50 of Gα15 activation (NanoBRET, G protein dissociation), HEK293A cells expressing CCR7 [2]: 7.8 -log10(M) | pEC50 of Gαi1 activation (NanoBRET, G protein dissociation), CHO-K1 cells expressing CCR7 [2]: 8.54 -log10(M) | pEC50 of Gαi1 activation (NanoBRET, G protein dissociation), HEK293A cells expressing CCR7 [2]: 8.63 -log10(M) | pEC50 of Gαi1 activation (NanoBRET, G protein dissociation), U87 cells expressing CCR7 [2]: 8.28 -log10(M) | pEC50 of Gαi2 activation (NanoBRET, G protein dissociation), CHO-K1 cells expressing CCR7 [2]: 8.69 -log10(M) | pEC50 of Gαi2 activation (NanoBRET, G protein dissociation), HEK293A cells expressing CCR7 [2]: 9.03 -log10(M) | pEC50 of Gαi2 activation (NanoBRET, G protein dissociation), U87 cells expressing CCR7 [2]: 8.56 -log10(M) | pEC50 of Gαi3 activation (NanoBRET, G protein dissociation), CHO-K1 cells expressing CCR7 [2]: 8.84 -log10(M) | pEC50 of Gαi3 activation (NanoBRET, G protein dissociation), HEK293A cells expressing CCR7 [2]: 9.61 -log10(M) | pEC50 of Gαi3 activation (NanoBRET, G protein dissociation), U87 cells expressing CCR7 [2]: 8.87 -log10(M) | pEC50 of GαoA activation (NanoBRET, G protein dissociation), CHO-K1 cells expressing CCR7 [2]: 9.37 -log10(M) | pEC50 of GαoA activation (NanoBRET, G protein dissociation), HEK293A cells expressing CCR7 [2]: 8.3 -log10(M) | pEC50 of GαoA activation (NanoBRET, G protein dissociation), U87 cells expressing CCR7 [2]: 8.59 -log10(M) | pEC50 of GαoB activation (NanoBRET, G protein dissociation), CHO-K1 cells expressing CCR7 [2]: 8.96 -log10(M) | pEC50 of GαoB activation (NanoBRET, G protein dissociation), HEK293A cells expressing CCR7 [2]: 8.85 -log10(M) | pEC50 of GαoB activation (NanoBRET, G protein dissociation), U87 cells expressing CCR7 [2]: 8.8 -log10(M) | pEC50 of Gαq activation (NanoBRET, G protein dissociation), CHO-K1 cells expressing CCR7 [2]: 8.77 -log10(M) | pEC50 of Gαq activation (NanoBRET, G protein dissociation), U87 cells expressing CCR7 [2]: 8.41 -log10(M) | pEC50 of GαsL activation (NanoBRET, G protein dissociation), CHO-K1 cells expressing CCR7 [2]: 8.97 -log10(M) | pEC50 of GαsL activation (NanoBRET, G protein dissociation), HEK293A cells expressing CCR7 [2]: 7.49 -log10(M) | pEC50 of GαsL activation (NanoBRET, G protein dissociation), U87 cells expressing CCR7 [2]: 8.95 -log10(M) | pEC50 of GαsS activation (NanoBRET, G protein dissociation), CHO-K1 cells expressing CCR7 [2]: 8.58 -log10(M) | pEC50 of GαsS activation (NanoBRET, G protein dissociation), U87 cells expressing CCR7 [2]: 8.65 -log10(M)
